Where no end group is shown, it is not given here.
Columns and labels:
[1] = target: αvβ3 integrin receptor expressed on mouse H5V endothelial cells (mouse) (UniProt P43406); experiment: cell-based or functional assay
[2] = target: αvβ3 integrin receptor expressed on mouse H5V endothelial cells (mouse) (UniProt P43406); experiment: Scatchard analysis of Eu-RGD-4C binding to H5V cells at 4 °C, time-resolved fluorometry
[3] = target: αvβ3 integrin receptor expressed on mouse H5V endothelial cells (mouse) (UniProt P43406); experiment: H5V cell binding assay at 4 °C, time-resolved fluorometry; non-specific binding defined with 1 µM RGD-4C; low ligand concentrations
[4] = target: αvβ3 integrin receptor expressed on mouse H5V endothelial cells (mouse) (UniProt P43406); experiment: H5V cell binding assay at 4 °C, time-resolved fluorometry; non-specific binding defined with 1 µM RGD-4C; highest ligand concentration

αvβ3 integrin receptor expressed on mouse H5V endothelial cells (mouse), sequence (P43406 31-1044, chain 1 of 2): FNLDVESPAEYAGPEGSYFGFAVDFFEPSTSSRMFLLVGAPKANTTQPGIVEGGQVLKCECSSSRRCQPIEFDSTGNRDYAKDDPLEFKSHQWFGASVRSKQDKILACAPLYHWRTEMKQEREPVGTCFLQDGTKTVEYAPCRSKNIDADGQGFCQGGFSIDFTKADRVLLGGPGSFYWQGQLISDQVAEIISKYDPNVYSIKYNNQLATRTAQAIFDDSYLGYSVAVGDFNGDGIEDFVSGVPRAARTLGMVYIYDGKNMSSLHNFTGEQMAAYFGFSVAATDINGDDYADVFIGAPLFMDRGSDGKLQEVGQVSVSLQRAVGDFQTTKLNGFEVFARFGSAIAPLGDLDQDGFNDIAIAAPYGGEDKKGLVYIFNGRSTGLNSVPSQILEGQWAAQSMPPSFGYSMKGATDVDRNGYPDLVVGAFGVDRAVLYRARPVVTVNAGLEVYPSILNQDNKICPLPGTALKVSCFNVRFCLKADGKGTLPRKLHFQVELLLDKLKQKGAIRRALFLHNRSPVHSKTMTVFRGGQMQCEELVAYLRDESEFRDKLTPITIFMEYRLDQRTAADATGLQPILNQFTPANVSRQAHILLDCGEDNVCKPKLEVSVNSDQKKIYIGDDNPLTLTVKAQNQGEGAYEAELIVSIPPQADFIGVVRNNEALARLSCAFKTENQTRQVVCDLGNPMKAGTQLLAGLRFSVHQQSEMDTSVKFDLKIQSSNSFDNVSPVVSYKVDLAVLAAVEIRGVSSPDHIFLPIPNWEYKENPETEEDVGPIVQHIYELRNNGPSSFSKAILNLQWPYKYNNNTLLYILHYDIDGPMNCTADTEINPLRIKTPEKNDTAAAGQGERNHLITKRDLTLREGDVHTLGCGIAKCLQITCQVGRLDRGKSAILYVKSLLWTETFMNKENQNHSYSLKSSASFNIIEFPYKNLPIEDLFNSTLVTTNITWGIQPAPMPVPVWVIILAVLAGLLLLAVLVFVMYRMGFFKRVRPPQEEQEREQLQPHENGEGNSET
αvβ3 integrin receptor expressed on mouse H5V endothelial cells (mouse), sequence (O54890 26-787, chain 2 of 2, further chain): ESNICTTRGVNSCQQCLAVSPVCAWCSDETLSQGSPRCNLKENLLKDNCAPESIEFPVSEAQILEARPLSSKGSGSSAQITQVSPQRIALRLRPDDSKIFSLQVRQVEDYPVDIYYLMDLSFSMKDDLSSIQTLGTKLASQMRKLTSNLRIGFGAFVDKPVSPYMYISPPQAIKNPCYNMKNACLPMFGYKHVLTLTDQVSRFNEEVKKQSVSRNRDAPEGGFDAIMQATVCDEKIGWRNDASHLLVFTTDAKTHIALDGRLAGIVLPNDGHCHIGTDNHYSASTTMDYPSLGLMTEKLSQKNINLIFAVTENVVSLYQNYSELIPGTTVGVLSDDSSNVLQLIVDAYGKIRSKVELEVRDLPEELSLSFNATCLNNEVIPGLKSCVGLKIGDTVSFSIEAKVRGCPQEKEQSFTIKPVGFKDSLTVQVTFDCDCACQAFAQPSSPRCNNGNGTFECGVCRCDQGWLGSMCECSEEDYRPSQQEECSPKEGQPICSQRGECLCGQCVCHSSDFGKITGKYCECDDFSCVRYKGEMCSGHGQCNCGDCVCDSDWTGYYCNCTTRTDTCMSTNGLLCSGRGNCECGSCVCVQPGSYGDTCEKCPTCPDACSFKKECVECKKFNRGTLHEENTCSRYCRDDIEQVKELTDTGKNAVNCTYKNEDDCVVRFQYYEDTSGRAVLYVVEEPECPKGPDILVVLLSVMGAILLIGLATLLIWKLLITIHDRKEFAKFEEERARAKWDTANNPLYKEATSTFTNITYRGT

Row | Binder | H5V endothelial cell detachment (rounded cells) in cell-rounding assay, 100 µM RGD-4C [1] [%] | Kd [2] [nM] | ratio of total binding to non-specific binding [3] | ratio of total binding to non-specific binding [4]
1 | H-CDCRGDCFC-NH2 (disulfide (positions not given here); also: two disulfides, pairing not given here) [cyclic nonapeptide RGD-4C] | 99 | – | – | –
2 | CDCRGDCFC-NH2 (disulfide (positions not given here); also: two disulfides among four Cys, pairing not given here, isothiocyanatophenyl-DTPA-Eu conjugated, site not given here) [Eu-labeled RGD-4C (isothiocyanatophenyl-DTPA-Eu-RGD-4C)] | – | 37.2 to 41.3 | 1 | 4
